Data taken from article PMC1140373 (Nucleic Acids Research, 2005).
Positions count from the first letter of the chain named. In names and notes the source's numbering stands.

B1: Human TFIIEβ, wild type, His6 tagged (natural protein, UniProt P29084 1-291, looked up)
chain: MDPSLLRERELFKKRALSTPVVEKRSASSESSSSSSKKKKTKVEHGGSSGSKQNSDHSNGSFNLKALSGSSGYKFGVLAKIVNYMKTRHQRGDTHPLTLDEILDETQHLDIGLKQKQWLMTEALVNNPKIEVIDGKYAFKPKYNVRDKKALLRLLDQHDQRGLGGILLEDIEEALPNSQKAVKALGDQILFVNRPDKKKILFFNDKSCQFSVDEEFQKLWRSVTVDSMDEEKIEEYLKRQGISSMQESGPKKVAPIQRRKKPASQKKRRFKTHNEHLAGVLKDYSDITSSK
B2: Human TFIIEβ I171S, His6 tagged (natural protein, UniProt P29084 1-291, looked up)
chain: B1 chain with I171S
B3: Human TFIIEβ I189S, His6 tagged (natural protein, UniProt P29084 1-291, looked up)
chain: B1 chain with I189S

Columns and labels:
[1] = molecular target: T1, Human TFIIEα, wild type, N-terminal FLAG tag (human, UniProt P29083 1-439); assay: pull-down
T1 sequence (looked up): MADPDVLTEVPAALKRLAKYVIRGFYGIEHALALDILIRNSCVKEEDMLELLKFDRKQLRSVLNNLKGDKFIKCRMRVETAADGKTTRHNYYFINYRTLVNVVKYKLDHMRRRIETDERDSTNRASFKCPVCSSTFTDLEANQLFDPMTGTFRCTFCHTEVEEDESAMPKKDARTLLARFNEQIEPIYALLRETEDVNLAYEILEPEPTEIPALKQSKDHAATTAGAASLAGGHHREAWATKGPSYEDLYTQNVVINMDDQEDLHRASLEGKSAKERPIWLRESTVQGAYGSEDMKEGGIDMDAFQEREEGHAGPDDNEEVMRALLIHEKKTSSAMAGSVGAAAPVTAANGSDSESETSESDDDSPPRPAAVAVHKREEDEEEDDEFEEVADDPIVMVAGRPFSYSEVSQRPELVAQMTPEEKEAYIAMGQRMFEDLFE

[2] = molecular target: T2, Glutathione S-transferase (GST)-tagged human XPB (human, UniProt P19447 1-782); assay: cell-based or functional assay
co-IP = molecular target: the molecule itself; assay: co-IP
[3] = molecular target: T2, Glutathione S-transferase (GST)-tagged …; assay: pull-down
[4] = molecular target: T3, FLAG-tagged wild type TFIIEβ (human, UniProt P29084 1-291); assay: co-IP
T3 sequence (looked up): B1 chain

[5] = molecular target: T1, Human TFIIEα, wild type, N-terminal …; assay: co-IP

T2 sequence (P19447 whole entry): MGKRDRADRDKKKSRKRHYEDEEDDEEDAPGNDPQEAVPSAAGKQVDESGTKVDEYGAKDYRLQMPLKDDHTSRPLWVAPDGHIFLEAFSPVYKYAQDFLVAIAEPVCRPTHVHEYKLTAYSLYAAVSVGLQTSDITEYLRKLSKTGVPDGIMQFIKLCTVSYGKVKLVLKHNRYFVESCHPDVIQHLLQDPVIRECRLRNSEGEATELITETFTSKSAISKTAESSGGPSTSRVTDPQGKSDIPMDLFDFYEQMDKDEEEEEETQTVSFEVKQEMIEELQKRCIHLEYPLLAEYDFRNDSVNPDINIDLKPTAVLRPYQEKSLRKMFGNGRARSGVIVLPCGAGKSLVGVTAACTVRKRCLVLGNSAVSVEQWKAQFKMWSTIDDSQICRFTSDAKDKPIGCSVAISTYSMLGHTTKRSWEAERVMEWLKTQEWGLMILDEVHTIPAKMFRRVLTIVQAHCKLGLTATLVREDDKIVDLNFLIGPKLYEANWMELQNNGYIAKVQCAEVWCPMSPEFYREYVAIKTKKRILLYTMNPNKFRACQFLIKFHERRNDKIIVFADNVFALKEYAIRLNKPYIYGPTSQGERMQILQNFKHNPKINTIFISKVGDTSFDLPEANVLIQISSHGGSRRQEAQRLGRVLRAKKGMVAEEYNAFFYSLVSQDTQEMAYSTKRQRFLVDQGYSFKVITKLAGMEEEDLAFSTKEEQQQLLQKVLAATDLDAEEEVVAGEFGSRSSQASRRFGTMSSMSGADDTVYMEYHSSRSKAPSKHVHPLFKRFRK

Row | Binder | binding result [1] | stimulation of XPB helicase activity, 2 μg of XPB and 1.2 μg of wild-type TFIIEβ [2] [fold] | binding result (co-IP) | binding result [3] | binding result [4] | binding result [5]
1 | B1 | binds | 3 | binds | – | – | –
2 | B2 | – | – | – | binds | binds | binds
3 | B3 | – | – | – | binds | binds | binds
